Consider 8 molecules from patent US12630600B2 (MEDIMMUNE LIMITED, priority 2022, dated 2026).

Holding throughout (assay): cell-based or functional assay
Test [1] concerns the target human GLP-1 receptor (human, UniProt P43220).
Test [2] deals with human glucagon receptor (human, UniProt P47871).
In test [3] the target is human GLP-1 receptor (human, UniProt P43220). The source holds these as a separate data set.
Test [4] concerns the target human glucagon receptor (human, UniProt P47871). The source holds these as a separate data set.

Starred links: 1 amine or outer side, 2 acyl side, 3 side chain; linkers in the order of their positions; H or OH if unused. Non-standard residues stand in square brackets, D forms with d. Groups on a side chain read outwards from the residue. No end group written: not given here. *: point of attachment. C20 diacid = O=C(O)CCCCCCCCCCCCCCCCCCC(=O)*; C18 diacid = O=C(O)CCCCCCCCCCCCCCCCC(=O)*; γGlu = O=C(O)[C@H](CCC(=O)[*:2])N[*:1]; αMeF = C[C@](N)(Cc1ccccc1)C(=O)O; AEEA = NCCOCCOCC(=O)O; Aib = CC(C)(N)C(=O)O

B1: Peptide 140 (peptide)
peptide: H[Aib]QGTFTSDVSK[αMeF]LDTK([AEEA-AEEA-γGlu-C18 diacid])RAQDFVRWLLE[Aib]G-OH
modifications: N-terminus assumed
SMILES: CC(C)C[C@H](NC(=O)[C@H](Cc1c[nH]c2ccccc12)NC(=O)[C@H](CCCNC(=N)N)NC(=O)[C@@H](NC(=O)[C@H](Cc1ccccc1)NC(=O)[C@H](CC(=O)O)NC(=O)[C@H](CCC(N)=O)NC(=O)[C@H](C)NC(=O)[C@H](CCCNC(=N)N)NC(=O)[C@H](CCCCNC(=O)COCCOCCNC(=O)COCCOCCNC(=O)CC[C@H](NC(=O)CCCCCCCCCCCCCCCCC(=O)O)C(=O)O)NC(=O)[C@@H](NC(=O)[C@H](CC(=O)O)NC(=O)[C@H](CC(C)C)NC(=O)[C@](C)(Cc1ccccc1)NC(=O)[C@H](CCCCN)NC(=O)[C@H](CO)NC(=O)[C@@H](NC(=O)[C@H](CC(=O)O)NC(=O)[C@H](CO)NC(=O)[C@@H](NC(=O)[C@H](Cc1ccccc1)NC(=O)[C@@H](NC(=O)CNC(=O)[C@H](CCC(N)=O)NC(=O)C(C)(C)NC(=O)[C@@H](N)Cc1c[nH]cn1)[C@@H](C)O)[C@@H](C)O)C(C)C)[C@@H](C)O)C(C)C)C(=O)N[C@@H](CC(C)C)C(=O)N[C@@H](CCC(=O)O)C(=O)NC(C)(C)C(=O)NCC(=O)O
For the molecule B1, the “cAMP production, hGLP-1R EC50 (pM)” value with human GLP-1 receptor [1] was 22.7 pM.

B2: Peptide 4 (peptide)
peptide: HSQGS[αMeF]TSDVSK[αMeF]LDSK([AEEA-AEEA-γGlu-C18 diacid])AAQDFVQWIANT-NH2
modifications: N-terminus assumed
SMILES: CC[C@H](C)[C@H](NC(=O)[C@H](Cc1c[nH]c2ccccc12)NC(=O)[C@H](CCC(N)=O)NC(=O)[C@@H](NC(=O)[C@H](Cc1ccccc1)NC(=O)[C@H](CC(=O)O)NC(=O)[C@H](CCC(N)=O)NC(=O)[C@H](C)NC(=O)[C@H](C)NC(=O)[C@H](CCCCNC(=O)COCCOCCNC(=O)COCCOCCNC(=O)CC[C@H](NC(=O)CCCCCCCCCCCCCCCCC(=O)O)C(=O)O)NC(=O)[C@H](CO)NC(=O)[C@H](CC(=O)O)NC(=O)[C@H](CC(C)C)NC(=O)[C@](C)(Cc1ccccc1)NC(=O)[C@H](CCCCN)NC(=O)[C@H](CO)NC(=O)[C@@H](NC(=O)[C@H](CC(=O)O)NC(=O)[C@H](CO)NC(=O)[C@@H](NC(=O)[C@](C)(Cc1ccccc1)NC(=O)[C@H](CO)NC(=O)CNC(=O)[C@H](CCC(N)=O)NC(=O)[C@H](CO)NC(=O)[C@@H](N)Cc1c[nH]cn1)[C@@H](C)O)C(C)C)C(C)C)C(=O)N[C@@H](C)C(=O)N[C@@H](CC(N)=O)C(=O)N[C@H](C(N)=O)[C@@H](C)O
For the molecule B2, the “cAMP production, hGluc-R EC50 (pM)” value with human glucagon receptor [2] amounted to 1170 pM. The “cAMP production, hGLP-1R EC50 (pM)” value in the test with human GLP-1 receptor [1] was determined as 240 pM.

B3: Peptide 39 (peptide)
peptide: H[Aib]QGTFTSDVSK[αMeF]LDSK([AEEA-AEEA-γGlu-C18 diacid])RAQDFVRWLL[Aib]TE-OH
modifications: N-terminus assumed
SMILES: CC(C)C[C@H](NC(=O)[C@H](Cc1c[nH]c2ccccc12)NC(=O)[C@H](CCCNC(=N)N)NC(=O)[C@@H](NC(=O)[C@H](Cc1ccccc1)NC(=O)[C@H](CC(=O)O)NC(=O)[C@H](CCC(N)=O)NC(=O)[C@H](C)NC(=O)[C@H](CCCNC(=N)N)NC(=O)[C@H](CCCCNC(=O)COCCOCCNC(=O)COCCOCCNC(=O)CC[C@H](NC(=O)CCCCCCCCCCCCCCCCC(=O)O)C(=O)O)NC(=O)[C@H](CO)NC(=O)[C@H](CC(=O)O)NC(=O)[C@H](CC(C)C)NC(=O)[C@](C)(Cc1ccccc1)NC(=O)[C@H](CCCCN)NC(=O)[C@H](CO)NC(=O)[C@@H](NC(=O)[C@H](CC(=O)O)NC(=O)[C@H](CO)NC(=O)[C@@H](NC(=O)[C@H](Cc1ccccc1)NC(=O)[C@@H](NC(=O)CNC(=O)[C@H](CCC(N)=O)NC(=O)C(C)(C)NC(=O)[C@@H](N)Cc1c[nH]cn1)[C@@H](C)O)[C@@H](C)O)C(C)C)C(C)C)C(=O)N[C@@H](CC(C)C)C(=O)NC(C)(C)C(=O)N[C@H](C(=O)N[C@@H](CCC(=O)O)C(=O)O)[C@@H](C)O
Take B3: the “cAMP production EC50” value in the test with human GLP-1 receptor [3] is 0.0761 nM; with human glucagon receptor [4], 0.194 nM.

As for H[Aib]QGTFTSDVSK[αMeF]LDSK([AEEA-AEEA-γGlu-C18 diacid])RAQDFVQWLL[Aib]TE-OH (not fully specified) [Peptide 150], the “cAMP production, hGluc-R EC50 (pM)” value with human glucagon receptor [2] stood at 355 pM. Further, in the test with human GLP-1 receptor [1], the “cAMP production, hGLP-1R EC50 (pM)” value is 166 pM.

B4: Peptide 37 (peptide)
peptide: H[Aib]QGTFTSDVSK[αMeF]LDSK([AEEA-AEEA-γGlu-C18 diacid])RAEDFVQWLL[Aib]T-OH
modifications: N-terminus assumed
SMILES: CC(C)C[C@H](NC(=O)[C@H](Cc1c[nH]c2ccccc12)NC(=O)[C@H](CCC(N)=O)NC(=O)[C@@H](NC(=O)[C@H](Cc1ccccc1)NC(=O)[C@H](CC(=O)O)NC(=O)[C@H](CCC(=O)O)NC(=O)[C@H](C)NC(=O)[C@H](CCCNC(=N)N)NC(=O)[C@H](CCCCNC(=O)COCCOCCNC(=O)COCCOCCNC(=O)CC[C@H](NC(=O)CCCCCCCCCCCCCCCCC(=O)O)C(=O)O)NC(=O)[C@H](CO)NC(=O)[C@H](CC(=O)O)NC(=O)[C@H](CC(C)C)NC(=O)[C@](C)(Cc1ccccc1)NC(=O)[C@H](CCCCN)NC(=O)[C@H](CO)NC(=O)[C@@H](NC(=O)[C@H](CC(=O)O)NC(=O)[C@H](CO)NC(=O)[C@@H](NC(=O)[C@H](Cc1ccccc1)NC(=O)[C@@H](NC(=O)CNC(=O)[C@H](CCC(N)=O)NC(=O)C(C)(C)NC(=O)[C@@H](N)Cc1c[nH]cn1)[C@@H](C)O)[C@@H](C)O)C(C)C)C(C)C)C(=O)N[C@@H](CC(C)C)C(=O)NC(C)(C)C(=O)N[C@H](C(=O)O)[C@@H](C)O
Take B4: the results for the “cAMP production EC50” value with human GLP-1 receptor [3] and with human glucagon receptor [4] were 0.0686 nM and 2.75 nM, respectively.

B5: Peptide 38 (peptide)
peptide: H[Aib]QGTFTSDVSK[αMeF]LDSK([AEEA-AEEA-γGlu-C18 diacid])RAQDFVEWLL[Aib]T-OH
modifications: N-terminus assumed
SMILES: CC(C)C[C@H](NC(=O)[C@H](Cc1c[nH]c2ccccc12)NC(=O)[C@H](CCC(=O)O)NC(=O)[C@@H](NC(=O)[C@H](Cc1ccccc1)NC(=O)[C@H](CC(=O)O)NC(=O)[C@H](CCC(N)=O)NC(=O)[C@H](C)NC(=O)[C@H](CCCNC(=N)N)NC(=O)[C@H](CCCCNC(=O)COCCOCCNC(=O)COCCOCCNC(=O)CC[C@H](NC(=O)CCCCCCCCCCCCCCCCC(=O)O)C(=O)O)NC(=O)[C@H](CO)NC(=O)[C@H](CC(=O)O)NC(=O)[C@H](CC(C)C)NC(=O)[C@](C)(Cc1ccccc1)NC(=O)[C@H](CCCCN)NC(=O)[C@H](CO)NC(=O)[C@@H](NC(=O)[C@H](CC(=O)O)NC(=O)[C@H](CO)NC(=O)[C@@H](NC(=O)[C@H](Cc1ccccc1)NC(=O)[C@@H](NC(=O)CNC(=O)[C@H](CCC(N)=O)NC(=O)C(C)(C)NC(=O)[C@@H](N)Cc1c[nH]cn1)[C@@H](C)O)[C@@H](C)O)C(C)C)C(C)C)C(=O)N[C@@H](CC(C)C)C(=O)NC(C)(C)C(=O)N[C@H](C(=O)O)[C@@H](C)O
As to B5, the entries for the “cAMP production EC50” value in the test with human GLP-1 receptor [3] and in the test with human glucagon receptor [4] were 0.0756 nM and 0.441 nM, respectively.

B6: Peptide 151 (peptide)
peptide: H[Aib]QGTFTSDVSK[αMeF]LDSK([AEEA-AEEA-γGlu-C20 diacid])RAQDFVRWLL[Aib]TE-OH
modifications: N-terminus assumed
SMILES: CC(C)C[C@H](NC(=O)[C@H](Cc1c[nH]c2ccccc12)NC(=O)[C@H](CCCNC(=N)N)NC(=O)[C@@H](NC(=O)[C@H](Cc1ccccc1)NC(=O)[C@H](CC(=O)O)NC(=O)[C@H](CCC(N)=O)NC(=O)[C@H](C)NC(=O)[C@H](CCCNC(=N)N)NC(=O)[C@H](CCCCNC(=O)COCCOCCNC(=O)COCCOCCNC(=O)CC[C@H](NC(=O)CCCCCCCCCCCCCCCCCCC(=O)O)C(=O)O)NC(=O)[C@H](CO)NC(=O)[C@H](CC(=O)O)NC(=O)[C@H](CC(C)C)NC(=O)[C@](C)(Cc1ccccc1)NC(=O)[C@H](CCCCN)NC(=O)[C@H](CO)NC(=O)[C@@H](NC(=O)[C@H](CC(=O)O)NC(=O)[C@H](CO)NC(=O)[C@@H](NC(=O)[C@H](Cc1ccccc1)NC(=O)[C@@H](NC(=O)CNC(=O)[C@H](CCC(N)=O)NC(=O)C(C)(C)NC(=O)[C@@H](N)Cc1c[nH]cn1)[C@@H](C)O)[C@@H](C)O)C(C)C)C(C)C)C(=O)N[C@@H](CC(C)C)C(=O)NC(C)(C)C(=O)N[C@H](C(=O)N[C@@H](CCC(=O)O)C(=O)O)[C@@H](C)O
Turning to B6, the “cAMP production, hGluc-R EC50 (pM)” value with human glucagon receptor [2] amounted to 178 pM. In the test with human GLP-1 receptor [1], the “cAMP production, hGLP-1R EC50 (pM)” value worked out at 111 pM.

B7: Peptide 20 (peptide)
peptide: H[Aib]HGS[αMeF]TSDVSK[αMeF]LDSK([AEEA-AEEA-γGlu-γGlu-C18 diacid])AARD[αMeF]VE[Aib]IANT-NH2
modifications: N-terminus assumed
SMILES: CC[C@H](C)[C@H](NC(=O)C(C)(C)NC(=O)[C@H](CCC(=O)O)NC(=O)[C@@H](NC(=O)[C@](C)(Cc1ccccc1)NC(=O)[C@H](CC(=O)O)NC(=O)[C@H](CCCNC(=N)N)NC(=O)[C@H](C)NC(=O)[C@H](C)NC(=O)[C@H](CCCCNC(=O)COCCOCCNC(=O)COCCOCCNC(=O)CC[C@H](NC(=O)CC[C@H](NC(=O)CCCCCCCCCCCCCCCCC(=O)O)C(=O)O)C(=O)O)NC(=O)[C@H](CO)NC(=O)[C@H](CC(=O)O)NC(=O)[C@H](CC(C)C)NC(=O)[C@](C)(Cc1ccccc1)NC(=O)[C@H](CCCCN)NC(=O)[C@H](CO)NC(=O)[C@@H](NC(=O)[C@H](CC(=O)O)NC(=O)[C@H](CO)NC(=O)[C@@H](NC(=O)[C@](C)(Cc1ccccc1)NC(=O)[C@H](CO)NC(=O)CNC(=O)[C@H](Cc1c[nH]cn1)NC(=O)C(C)(C)NC(=O)[C@@H](N)Cc1c[nH]cn1)[C@@H](C)O)C(C)C)C(C)C)C(=O)N[C@@H](C)C(=O)N[C@@H](CC(N)=O)C(=O)N[C@H](C(N)=O)[C@@H](C)O
As to B7, the “cAMP production, hGLP-1R EC50 (pM)” value in the test with human GLP-1 receptor [1] was 152 pM.
